Data: the supplement of paper PMC10126150
± gives the standard deviation of the averaged measurements.

Test system: ATP
Assay: switch fluorescence ratio, 500 uM ATP over buffer (Cy3 cluster intensity, sum of 5 cycles each) (fold (ratio)); higher = stronger signal-on switching upon ATP binding; sequences stand for … in TCGTCGGCAGCGTCAGATGTGTATAAGAGACAGTTTTTTTTTTTTTTTTTTTTTTTTT…TC
Details: aptamer strand: ATP DNA aptamer (quencher-CACCTGGGGGAGTATTGCGGAGGAAGG + anchor), 100 nM annealed; ATP concentration: 500 uM
In short: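 Per cluster, summed Cy3 intensity from the target cycles was divided by that from the buffer cycles to give the fluorescence ratio, then averaged per switch-domain sequence. Clusters outside 100-1000 RFU were excluded. The Cy3-labelled switching-strand clusters, on a modified Illumina MiSeq flow-cell, were annealed to 100 nM quencher-labelled ATP aptamer and imaged in selection buffer, then after 15 min with 500 uM ATP at 22 °C, for five cycles with NaOH stripping and re-annealing between them.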
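Further: ATP exposure 15 min at 22 °C before imaging.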

| Sequence | switch fluorescence ratio |
| --- | --- |
| TTTTGGTAGT | 1.03 ± 0.063 |
| TTTTGGTCTT | 1 ± 0.028 |
| TTTTGGTTAA | 1.02 ± 0.041 |
| TTTTGGTTGC | 1.02 ± 0.032 |
| TTTTGGTTGG | 0.971 ± 0.028 |
| TTTTGGTTGT | 1.01 ± 0.029 |
| TTTTGGTTTC | 1.05 ± 0.11 |
| TTTTGTAATT | 1.1 ± 0.2 |
| TTTTGTATAA | 1.02 ± 0.02 |
| TTTTGTATTC | 1.05 ± 0.12 |
| TTTTGTCGCA | 0.9913 ± 0.0075 |
| TTTTGTCTGT | 1.01 ± 0.016 |
| TTTTGTGAAA | 0.997 ± 0.036 |
| TTTTGTGCGG | 0.98 ± 0.042 |
| TTTTGTGGAC | 0.996 ± 0.034 |
| TTTTGTGGCA | 0.987 ± 0.014 |
| TTTTGTGGTA | 1.03 ± 0.013 |
| TTTTGTTAGT | 0.997 ± 0.022 |
| TTTTGTTCCC | 1 ± 0.034 |
| TTTTGTTGCT | 0.956 ± 0.037 |
| TTTTGTTGT | 0.987 ± 0.024 |
| TTTTGTTTCC | 1.01 ± 0.062 |

| Sequence | switch fluorescence ratio |
| --- | --- |
| TTTTGTTTTG | 1 ± 0.043 |
| TTTTGTTTTT | 1.08 ± 0.44 |
| TTTTTAACAT | 0.993 ± 0.033 |
| TTTTTAACGA | 0.9688 ± 0.009 |
| TTTTTAATAT | 1.04 ± 0.062 |
| TTTTTACCAT | 1.04 ± 0.022 |
| TTTTTACTAA | 1.01 ± 0.011 |
| TTTTTACTCC | 1.48 ± 0.53 |
| TTTTTACTGG | 1 ± 0.03 |
| TTTTTAGAGG | 0.97 ± 0.041 |
| TTTTTAGGTT | 1.04 ± 0.064 |
| TTTTTATATC | 0.99 ± 0.028 |
| TTTTTATCCA | 0.976 ± 0.026 |
| TTTTTATGGC | 0.978 ± 0.028 |
| TTTTTATTCC | 1.02 ± 0.034 |
| TTTTTATTGA | 1 ± 0.034 |
| TTTTTCAAGA | 0.9897 ± 0.0088 |
| TTTTTCAGTT | 1 ± 0.033 |
| TTTTTCCGGG | 1.1 ± 0.11 |
| TTTTTCCGTT | 1.12 ± 0.27 |
| TTTTTCCTAT | 1.012 ± 0.0071 |
| TTTTTCGATT | 0.982 ± 0.026 |

| Sequence | switch fluorescence ratio |
| --- | --- |
| TTTTTCGTCT | 1.02 ± 0.028 |
| TTTTTCGTGG | 1.01 ± 0.022 |
| TTTTTCGTTT | 0.997 ± 0.034 |
| TTTTTCTACC | 1.035 ± 0.0091 |
| TTTTTCTAGT | 1.01 ± 0.02 |
| TTTTTCTCCC | 1.03 ± 0.049 |
| TTTTTGAAAC | 1.01 ± 0.027 |
| TTTTTGAAAT | 1.35 ± 0.6 |
| TTTTTGAACG | 1.02 ± 0.018 |
| TTTTTGAAGT | 1.01 ± 0.027 |
| TTTTTGAATG | 0.983 ± 0.032 |
| TTTTTGAATT | 1 ± 0.034 |
| TTTTTGACCT | 1.38 ± 0.24 |
| TTTTTGATAG | 0.9847 ± 0.0057 |
| TTTTTGATGG | 1.02 ± 0.037 |
| TTTTTGCAGT | 1.02 ± 0.082 |
| TTTTTGCATC | 1.2 ± 0.27 |
| TTTTTGCATG | 1.03 ± 0.047 |
| TTTTTGCCAC | 1 ± 0.043 |
| TTTTTGCGCG | 0.9974 ± 0.0065 |
| TTTTTGCGTT | 0.976 ± 0.037 |
| TTTTTGGACA | 0.993 ± 0.019 |

| Sequence | switch fluorescence ratio |
| --- | --- |
| TTTTTGGATG | 1.02 ± 0.057 |
| TTTTTGGCCT | 1.05 ± 0.052 |
| TTTTTGGCTT | 1.02 ± 0.093 |
| TTTTTGGGGA | 1 ± 0.025 |
| TTTTTGGTCC | 0.992 ± 0.011 |
| TTTTTGTAGG | 0.995 ± 0.016 |
| TTTTTGTGAA | 0.995 ± 0.033 |
| TTTTTGTGAG | 1.01 ± 0.039 |
| TTTTTGTTTA | 0.971 ± 0.038 |
| TTTTTTAACA | 1.01 ± 0.027 |
| TTTTTTAATC | 1.02 ± 0.03 |
| TTTTTTACAT | 1.01 ± 0.018 |
| TTTTTTACTC | 1 ± 0.039 |
| TTTTTTAGAT | 0.985 ± 0.022 |
| TTTTTTAGGC | 0.962 ± 0.041 |
| TTTTTTATAC | 1.02 ± 0.051 |
| TTTTTTATCC | 1.03 ± 0.089 |
| TTTTTTCCCT | 1.08 ± 0.12 |
| TTTTTTCCG | 1.08 ± 0.1 |
| TTTTTTCGGA | 1.01 ± 0.073 |
| TTTTTTCT | 0.987 ± 0.02 |
| TTTTTTCTAA | 0.973 ± 0.015 |

| Sequence | switch fluorescence ratio |
| --- | --- |
| TTTTTTGAAG | 0.997 ± 0.03 |
| TTTTTTGAGC | 0.996 ± 0.031 |
| TTTTTTGATC | 0.999 ± 0.034 |
| TTTTTTGCAT | 1.07 ± 0.19 |
| TTTTTTGCCT | 1.01 ± 0.038 |
| TTTTTTGCGG | 1.08 ± 0.22 |
| TTTTTTGGAA | 1.1 ± 0.16 |
| TTTTTTGGAG | 1.01 ± 0.023 |
| TTTTTTGGCC | 0.993 ± 0.036 |
| TTTTTTGGT | 0.986 ± 0.016 |
| TTTTTTGTCA | 1.02 ± 0.042 |
| TTTTTTTAA | 0.991 ± 0.026 |
| TTTTTTTAAA | 0.999 ± 0.027 |
| TTTTTTTCCG | 1.012 ± 0.0081 |
| TTTTTTTCGA | 1.01 ± 0.022 |
| TTTTTTTCGG | 1 ± 0.027 |
| TTTTTTTGC | 1 ± 0.02 |
| TTTTTTTGCG | 1.02 ± 0.069 |
| TTTTTTTTAA | 1.01 ± 0.045 |
| TTTTTTTTCC | 1.15 ± 0.4 |
